Where a chain is given by its changes, count along the chain named. Like-named read-outs stand apart in the source and are kept apart here.

The target in test [1] is T1, Human ANGPTL3(17-460)-FLAG-His-Avi (human, UniProt Q9Y5C1 17-460, biotin on the C-terminal Avi tag).
T1 construct: also called full length human ANGPTL3; hANGPTL3
T1 sequence: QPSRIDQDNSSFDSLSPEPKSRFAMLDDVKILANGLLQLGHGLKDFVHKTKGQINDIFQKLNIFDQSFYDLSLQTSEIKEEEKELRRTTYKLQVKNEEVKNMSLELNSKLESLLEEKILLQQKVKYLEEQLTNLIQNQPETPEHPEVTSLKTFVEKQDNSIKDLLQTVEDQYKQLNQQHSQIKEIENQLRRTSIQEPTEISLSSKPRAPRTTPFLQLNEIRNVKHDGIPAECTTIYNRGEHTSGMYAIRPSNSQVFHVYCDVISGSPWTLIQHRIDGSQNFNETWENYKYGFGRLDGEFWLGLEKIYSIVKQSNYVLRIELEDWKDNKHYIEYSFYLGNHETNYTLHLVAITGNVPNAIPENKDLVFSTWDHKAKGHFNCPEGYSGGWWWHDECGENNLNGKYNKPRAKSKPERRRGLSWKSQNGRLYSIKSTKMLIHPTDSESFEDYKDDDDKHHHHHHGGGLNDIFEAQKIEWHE
In words: direct ELISA on streptavidin-coated MSD plate: biotinylated antigen immobilised at 1 nM, antibody at 1 nM, detection with Sulfo-tagged goat anti-human IgG. The protocol: Direct ELISA assays were conducted to characterize antibody binding specificity of selected antibodies of the invention. The assay was performed as follows. A 384-well streptavidin-coated Meso Scale Discovery (MSD) plate was blocked by incubating the plate with 50 μL Blocking Buffer (PBS, pH 7.4, 5% w/v bovine serum albumin) per well at 22° C. for 1 hour with constant shaking (600 rpm). The blocked MSD plate was then washed 3 times with Wash Buffer (PBS, pH 7.4 and 0.05% v/v Tween-20) using a plate washer (BioTek). Following washing, biotinylated human ANGPTL4 proteins diluted in Assay Buffer (PBS, pH 7.4 without CaCl₂ or MgCl₂, 0.5% w/v fatty acid-free bovine serum albumin and 0.02% v/v Tween-20) were immobilized on the surface by incubation at 1 nM concentration (15 μL per well) at 22° C. for one hour: full length human ANGPTL4 (hANGPTL4), human ANGPTL4 coiled-coil domain (hANGPTL4-CCD) and full length human ANGPTL3 (hANGPTL3). The plate was then washed 3 times as described earlier. Antibody diluted to 1 nM concentration in Assay Buffer was then applied to the MSD plate […], and the plate was incubated for 1 hour at 22° C. with constant shaking (600 rpm). Bound antibodies were detected by adding 15 μL per well of a 1:500 dilution of Sulfo-tagged goat anti-human IgG. The plate was then incubated for one hour with constant shaking (600 rpm). The plate was washed 3 times, and then 15 μL/well of 1×MSD read buffer T was added and the plate was developed using a Sector Imager 6000 (Meso Scale Discovery). The data were transferred to Microsoft Excel for analysis and plotted using GraphPad Prism v6. […] An ANGPTL3-specific reference antibody was used as a positive control for the ANGPTL3 binding assay (FIG. 2).

In test [2] the target is T2, Human ANGPTL4(26-406)-FLAG-His6-Avi (human, UniProt Q9BY76 24-406, biotin on the C-terminal Avi tag in the biotinylated preparations (immobilised form in SET, ELISA and Octet)).
T2 construct: also called full-length human ANGPTL4; hANGPTL4
T2 sequence: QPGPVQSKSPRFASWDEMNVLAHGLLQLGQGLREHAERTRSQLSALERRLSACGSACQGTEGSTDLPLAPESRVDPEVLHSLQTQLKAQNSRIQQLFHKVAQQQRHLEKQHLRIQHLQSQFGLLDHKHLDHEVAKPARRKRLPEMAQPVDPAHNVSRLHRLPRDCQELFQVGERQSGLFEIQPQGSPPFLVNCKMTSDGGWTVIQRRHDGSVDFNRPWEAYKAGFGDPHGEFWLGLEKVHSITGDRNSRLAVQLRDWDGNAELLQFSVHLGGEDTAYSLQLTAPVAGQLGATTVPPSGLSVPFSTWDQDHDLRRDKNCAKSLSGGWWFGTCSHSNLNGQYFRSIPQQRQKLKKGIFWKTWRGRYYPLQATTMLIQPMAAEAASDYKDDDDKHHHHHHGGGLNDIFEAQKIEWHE
In words: ForteBio Octet, biotinylated antigen on streptavidin sensor, antibody in solution. The protocol: Dissociation constants (KD) were determined for selected antibodies of the invention by using an Octet (ForteBio) kinetic binding assay. ForteBio 10× Kinetics Buffer (ForteBio, catalog number 18-5032) was diluted 10-fold with DPBS (Life Technologies, catalog number 14190-136), and the resulting solution was added (0.2 ml per well) to a 96-well plate (Greiner, catalog number 65520). Streptavidin sensors (ForteBio, catalog number 18-5020) were immersed in the solution and equilibrated for at least 10 min at room temperature. In a second 96-well plate (Greiner, catalog number 65520), sensors were washed in 1× Kinetics buffer, and then immersed in 200 ul of 25 nM biotinylated human ANGPTL4 or a biotinylated reference protein (for background substraction) for 1000 sec […] at room temperature. The sensors were then washed in 1× Kinetics buffer for 120 sec, and immersed in 200 ul of ANGPTL4 antibody diluted in 1× Kinetics buffer at various concentrations (serial 2-fold dilutions ranging from 25 nM to 0.4 nM), and antibody association was monitored for 480 seconds. The sensors were then transferred to a well containing 200 ul 1× Kinetics buffer, and antibody dissociation was monitored for 1200 seconds. Background-corrected association and dissociation curves were globally fitted by Octet Software (ForteBio) to generate association (kₒₙ) and dissociation (koff) rate constants, which in turn were used to calculate equilibrium dissociation constants (KD).

In test [3] the target is T2, Human ANGPTL4(26-406)-FLAG-His6-Avi. In words: cell-based or functional assay.
Test [4] has the same target. Description: cell-based or functional assay. The source holds these as a separate data set.
For test [5] the target is unchanged. In words: SET assay (solution equilibrium titration, MSD), IgG. The protocol: SET assays were performed as follows. In a 96-well polypropylene plate, a constant concentration of ANGPTL4 antibody was mixed with different concentrations of non-biotinylated human, cyno, mouse, or rat full-length ANPGLT4 protein, or human ANGPTL4 N-terminal domain protein (5-fold serial dilution) and incubated at 22° C. for 14 hours with constant shaking (300 rpm). On a pre-blocked 384-well streptavidin-coated Meso Scale Discovery (MSD) plate biotinylated ANGPTL4 (full-length human, cyno, mouse, or rat ANGPTL4, or human ANGPTL4 N-terminal domain) protein (1 nM, 15 μL per well) was immobilized and washed thereafter.
The equilibrium binding reactions (15 μL per well) were applied to the MSD plate with immobilized ANGPTL4 and incubated for 20 min at 22° C. The unbound material was removed by washing the plate 3 times with wash buffer, and the captured antibody was detected by adding Sulfo-tagged goat anti-human IgG (Meso Scale Discovery). After washing MSD read buffer T was added and the plate was developed using a Sector Imager 6000 (Meso Scale Discovery). The data were transferred to Microsoft Excel for analysis and plotted using GraphPad Prism v6. The KD values were determined by fitting the data to the following equation: […]
where Bₘₐₓ is the signal when no ANGPTL4 protein is present in solution, CAb is the constant concentration of ANGPTL4 antibody in solution, CAg is the concentration of ANGPTL4 in solution, and KD is the equilibrium dissociation constant.

Test [6] has the same target. In words: cell-based or functional assay. This is another data set of the same source.
Test [7] has the same target. In words: cell-based or functional assay. The source holds these as a separate data set.

B1: MOR021823 (antibody, human IgG1, kappa, V domains shown)
VH: QVQLLESGGGLVQPGGSLRLSCAASGFTFSSYYLHWVRQAPGKGLEWVSYISGDGSSTYYADSVKGRFTISRDNSKNTLYLQMNSLRAEDTAVYYCARERSYAHDHWGQGTLVTVSS
VL: DIQMTQSPSSLSASVGDRVTITCRASQDIYIDLNWYQQKPGKAPKLLIYAASKLQSGVPSRFSGSGSGTDFTLTISSLQPEDFATYYCQQGYFLPQTFGQGTKVEIKR
notes: human IgG1
On to B1, for which the binding result in test [1] is “no binding (tested: 1 nM)”. In test [2], this molecule showed a Kd of 0.047 nM, a koff of 2.5e-05 s⁻¹ and an on-rate (kon) of 530000 M⁻¹ s⁻¹. Besides, the “EC50 (read off the curve) [1(E]” value in test [3] is around 0.5 nM. Also, the “Reversal of human ANGPTL4 inhibition of human LPL EC50” value in test [4] was found to be 1 nM. Also, in test [5], the equilibrium dissociation constant (Kd) worked out at 0.009 nM.

B2: MOR022772 (antibody, human IgG1, kappa, V domains shown)
VH: EVQLLESGGGLVQPGGSLRLSCAASGFTFSSYWMHWVRQAPGKGLEWVSGISYDASSTNYADSVKGRFTISRDNSKNTLYLQMNSLRAEDTAVYYCARDSYIYDLHWGFDNWGQGTLVTVSS
VL: B1 VL with Y30S, I31S, D32Y, K53R, G91S, F93T, L94H, Q96Y
notes: human IgG1
In the case of B2, the “Reversal of human ANGPTL4 inhibition of human LPL EC50” value in test [6] came to 5 nM. The Kd in test [5] is 0.053 nM.

B3: MOR021830 (antibody, human IgG1, kappa, V domains shown)
VH: B2 VH with E1Q, A55G
VL: B1 VL with Y30S, I31S, D32Y, K53R, G91S, F93T, L94H, Q96Y
notes: human IgG1
Consider B3, for which the binding result in test [1] is reported as “no binding (tested: 1 nM)”. In test [2], binding was characterised by a dissociation constant (Kd) of 0.069 nM, the koff is 1.5e-05 s⁻¹ and the kon was found to be 210000 M⁻¹ s⁻¹. In addition, in test [3], the “EC50 (read off the curve) [1(F]” value is around 1 nM. For the same molecule, the “Reversal of human ANGPTL4 inhibition of human LPL EC50” value in test [4] was 4 nM. The equilibrium dissociation constant (Kd) in test [5] stood at 0.026 nM.

B4: MOR021800 (antibody, human IgG1, lambda, V domains shown)
VH: QVQLVQSGAEVKKPGESLKISCKGSGYSFSTYWISWVRQMPGKGLEWMGIIDPSNSDTRYSPSFQGQVTISADKSISTAYLQWSSLKASDTAMYYCARVYGYVYMDVWGQGTLVTVSS
VL: DIELTQPPSVSVSPGQTASITCSGDNLGKKYAYWYQQKPGQAPVLVIYDKTKRPSGIPERFSGSNSGNTATLTISGTQAEDEADYYCASYDWYSSSYVFGGGTKLTVLG
notes: human IgG1
Take B4: the “EC50 (read off the curve) [1(D]” value in test [7] was around 0.5 nM. In test [1], the binding result is given as “no binding (tested: 1 nM)”. In test [2], this molecule returned a Kd of 0.134 nM, a koff of 5.6e-05 s⁻¹ and a kon of 420000 M⁻¹ s⁻¹. Besides, in test [4], the “Reversal of human ANGPTL4 inhibition of human LPL EC50” value stood at 1 nM. Binding in test [5] was characterised by a dissociation constant (Kd) of 0.017 nM.

B5: MOR022761 (antibody, human IgG1, lambda, V domains shown)
VH: QVQLVQSGAEVKKPGSSVKVSCKASGGTFQSYAISWVRQAPGQGLEWMGGIIPLFGFANYAQKFQGRVTITADESTSTAYMELSSLRSEDTAVYYCARESYDPYAFDVWGQGTLVTVSS
VL: SYELTQPLSVSVALGQTARITCSGDNLGKYSASWYQQKPGQAPVLVIHQDNNRPSGIPERFSGSNSGNTATLTISRAQAGDEADYYCASRAHSMHVVFGGGTKLTVLG
notes: human IgG1
With B5, the “Reversal of human ANGPTL4 inhibition of human LPL EC50” value in test [6] was 11 nM. In test [5], this molecule yielded a dissociation constant Kd of 0.189 nM.

B6: MOR022762 (antibody, human IgG1, lambda, V domains shown)
VH: B5 VH with Q30S
VL: B5 VL
notes: human IgG1
For B6, the “Reversal of human ANGPTL4 inhibition of human LPL EC50” value in test [6] was 4 nM. In addition, the Kd in test [5] was found to be 0.107 nM.

B7: MOR021795 (antibody, human IgG1, lambda, V domains shown)
VH: B5 VH with Q30N
VL: B5 VL with S1D, Y2I, L8P, A13S, L14P, R19S, R76G, A77T, G80E
notes: human IgG1
Regarding B7, in test [1], the binding result was “no binding (tested: 1 nM)”. Moreover, in test [2], binding was put at a Kd of 0.304 nM, the off-rate constant (koff) stood at 7.4e-05 s⁻¹ and the on-rate (kon) was determined as 240000 M⁻¹ s⁻¹. Besides, the “Reversal of human ANGPTL4 inhibition of human LPL EC50” value in test [4] turned out to be 12 nM. Further, in test [5], the Kd amounted to 0.036 nM.

The values above are taken from patent publication US20160108110A1 (Novartis, published 2016).
